For 1 substance, stoichiometry N results are on record in publication PMC7312448.

As a reminder, the stoichiometry N is the number of molecules, sites or subunits per partner or assembly.

In the test the target is MavC (wild type) (L. pneumophila). The experiment in a line: SEC. For orientation: In gel filtration, larger molecules generally elute earlier.

With MavC (wild type) (enzyme), the stoichiometry N worked out at 2.
